Legend:
[1] = target: HLA-A*03:01; assay: IEDB peptide-MHC binding, purified MHC/direct/fluorescence; filed as Kd, often an IC50 or EC50 that approximates it; ≥ and ≤ were set here for values at or beyond the usual limits of such assays
[2] = target: HLA-A*02:01; assay: as above; settings: source organism: Reston ebolavirus
[3] = target: HLA-C*03:03; assay: as above
[4] = target: HLA-B*15:01; assay: IEDB peptide-MHC binding, purified MHC/competitive/fluorescence; ≥ and ≤ were set here for values at or beyond the usual limits of such assays
[5] = target: HLA-A*24:02; assay: as above
[6] = target: HLA-A*02:01; assay: as above
[7] = target: HLA-B*27:03; assay: IEDB peptide-MHC binding, purified MHC/competitive/fluorescence; filed as Kd, often an IC50 or EC50 that approximates it; ≥ and ≤ were set here for values at or beyond the usual limits of such assays
[8] = target: HLA-B*18:01; assay: as above
[9] = target: HLA-B*57:01; assay: as above
[10] = target: HLA-B*46:01; assay: as above
[11] = target: HLA-A*26:01; assay: as above
[12] = target: HLA-B*07:02; assay: IEDB peptide-MHC binding, purified MHC/competitive/fluorescence; ≥ and ≤ were set here for values at or beyond the usual limits of such assays
[13] = target: HLA-B*57:01; assay: IEDB peptide-MHC binding, purified MHC/competitive/radioactivity; filed as Kd, often an IC50 or EC50 that approximates it; ≥ and ≤ were set here for values at or beyond the usual limits of such assays
[14] = target: HLA-A*03:01; assay: IEDB peptide-MHC binding, purified MHC/competitive/fluorescence; ≥ and ≤ were set here for values at or beyond the usual limits of such assays; settings: source organism: Variola virus
[15] = target: HLA-A*11:01; assay: as above; settings: source organism: Variola virus
[16] = target: HLA-B*15:01; assay: IEDB peptide-MHC binding, purified MHC/direct/fluorescence; filed as Kd, often an IC50 or EC50 that approximates it; ≥ and ≤ were set here for values at or beyond the usual limits of such assays; settings: source organism: Shigella flexneri
[17] = target: HLA-A*01:01; assay: as above; settings: source organism: Escherichia coli O157:H7
[18] = target: HLA-A*69:01; assay: as above; settings: source organism: Escherichia coli O157:H7
[19] = target: HLA-B*44:02; assay: as above; settings: source organism: Escherichia coli O157:H7
[20] = target: HLA-B*15:17; assay: as above; settings: source organism: Escherichia coli O157:H7
[21] = target: HLA-A*31:01; assay: as above; settings: source organism: Escherichia coli O157:H7
[22] = target: HLA-B*40:01; assay: as above; settings: source organism: Escherichia coli O157:H7
[23] = target: HLA-B*08:01; assay: as above; settings: source organism: Escherichia coli O157:H7
[24] = target: HLA-B*58:01; assay: as above; settings: source organism: Shigella flexneri
[25] = target: HLA-B*57:01; assay: as above; settings: source organism: Escherichia coli O157:H7
[26] = target: HLA-B*27:05; assay: as above; settings: source organism: Escherichia coli O157:H7
[27] = target: HLA-A*26:01; assay: as above; settings: source organism: Escherichia coli O157:H7
[28] = target: HLA-A*11:01; assay: as above; settings: source organism: Escherichia coli O157:H7
[29] = target: HLA-C*12:03; assay: as above; settings: source organism: Homo sapiens
[30] = target: HLA-B*15:01; assay: IEDB peptide-MHC binding, purified MHC/competitive/fluorescence; filed as Kd, often an IC50 or EC50 that approximates it; ≥ and ≤ were set here for values at or beyond the usual limits of such assays
[31] = target: HLA-A*69:01; assay: as above; settings: source organism: Escherichia coli
[32] = target: HLA-A*02:19; assay: as above; settings: source organism: Escherichia coli
[33] = target: HLA-B*15:17; assay: as above; settings: source organism: Escherichia coli
[34] = target: HLA-A*02:11; assay: as above; settings: source organism: Escherichia coli
[35] = target: HLA-B*39:01; assay: as above
[36] = target: HLA-A*68:02; assay: as above; settings: source organism: Escherichia coli
[37] = target: HLA-B*51:01; assay: as above
[38] = target: HLA-A*02:12; assay: as above; settings: source organism: Escherichia coli
[39] = target: HLA-A*03:01; assay: as above; settings: source organism: Escherichia coli
[40] = target: HLA-A*02:01; assay: as above
[41] = target: HLA-A*24:03; assay: as above
[42] = target: HLA-A*02:19; assay: IEDB peptide-MHC binding, purified MHC/direct/fluorescence; filed as Kd, often an IC50 or EC50 that approximates it; ≥ and ≤ were set here for values at or beyond the usual limits of such assays; settings: source organism: Orthohantavirus andesense
[43] = target: HLA-A*02:03; assay: as above; settings: source organism: Orthohantavirus andesense
[44] = target: HLA-A*02:12; assay: as above; settings: source organism: Orthohantavirus andesense
[45] = target: HLA-C*05:01; assay: as above
[46] = source organism: Zaire ebolavirus
[47] = source organism: Sudan ebolavirus
[48] = source organism: Dengue virus 2 Jamaica/1409/1983
[49] = source organism: Escherichia coli
[50] = source organism: Orthohantavirus andesense
[51] = source organism: human gammaherpesvirus 4
[52] = source organism: Escherichia coli O139:H28 str. E24377A

FLSFASLFL was tested, and the Kd [1, 46] was ≥ 20 µM, the Kd [2] was ≤ 0.001 µM and the Kd [3, 46] was 0.005 µM. It also gave an IC50 [4, 46] of 8.79 µM, an IC50 [5, 46] of 0.276 µM and an IC50 [6, 46] of 0.0489 µM. The Kd [7, 46] was ≥ 20 µM, the Kd [8, 46] was ≥ 20 µM and the Kd [9, 46] was ≥ 20 µM. The Kd [10, 46] was ≥ 20 µM and the Kd [11, 46] was ≥ 20 µM.

GLMHNQNAL showed an IC50 [4, 47] of 11.5 µM, an IC50 [5, 47] of 36.6 µM and an IC50 [12, 47] of 12.4 µM. The IC50 [6, 47] was 3.85 µM.

In the case of GSSPILSITI, the Kd [13, 48] is reported as 0.114 µM.

In the case of IPLASLTPK, the IC50 ([5]; source organism: Variola virus) is reported as 22.1 µM, the IC50 ([12]; source organism: Variola virus) is reported as 5.73 µM and the IC50 [14] is reported as 66.6 µM. The IC50 [15] was 6.66 µM.

With ITIPIGLYL the Kd [16] was 2.97 µM, the Kd [17] was ≥ 20 µM and the Kd [18] was ≥ 20 µM. For the same sequence, the Kd [19] was ≥ 20 µM, the Kd [20] was 0.0018 µM and the Kd [21] was ≥ 20 µM. The Kd [22] was ≥ 20 µM, the Kd [23] was ≥ 20 µM and the Kd [24] was 0.0101 µM. For the same sequence, the Kd [25] was 0.349 µM, the Kd ([1]; source organism: Escherichia coli O157:H7) was ≥ 20 µM and the Kd [26] was ≥ 20 µM. The Kd [27] was ≥ 20 µM, the Kd ([3]; source organism: Escherichia coli O157:H7 str. EDL933) was 0.094 µM and the Kd [28] was ≥ 20 µM.

KAFQDVLYV was tested, and the Kd [29] was ≤ 0.001 µM.

With KTKLTDWDF the Kd ([13]; source organism: Dengue virus 4 Philippines/H241/1956) was 0.132 µM.

Work on LGKSYAQMW yielded a Kd [13, 48] of 0.0927 µM.

In the case of MFWKLPPWL, the Kd [30, 49] is reported as ≥ 20 µM, the Kd [31] is reported as ≥ 20 µM and the Kd [32] is reported as ≥ 20 µM. For the same sequence, the Kd [33] was ≥ 20 µM, the Kd [34] was 0.0136 µM and the Kd [35, 49] was ≥ 20 µM. For the same sequence, the Kd [7, 49] was ≥ 20 µM, the Kd [36] was ≥ 20 µM and the Kd [8, 49] was ≥ 20 µM. The Kd [37, 49] was ≥ 20 µM, the Kd [38] was ≥ 20 µM and the Kd [9, 49] was ≥ 20 µM. The Kd [39] was ≥ 20 µM, the Kd [10, 49] was ≥ 20 µM and the Kd [40, 49] was ≥ 20 µM. The Kd [11, 49] was ≥ 20 µM.

For NIKRTLAAM, the IC50 [12, 46] was ≥ 128 µM and the IC50 [6, 46] was ≥ 458 µM.

Sequence PTAGILARW has a Kd ([13]; source organism: Dengue virus 1 Brazil/97-11/1997) of 0.0127 µM.

In the case of QYTRNSFYI, the Kd ([41]; source organism: Escherichia coli 536) is reported as 0.0003 µM.

RVGRVNPGT showed an IC50 ([12]; source organism: Variola virus) of 21.4 µM and an IC50 ([6]; source organism: Variola virus) of 11.4 µM.

With RWASGVSEI the Kd [42] was ≥ 20 µM, the Kd [43] was ≥ 20 µM and the Kd [44] was ≥ 20 µM. The Kd [1, 50] was ≥ 20 µM, the Kd [41, 50] was 0.0002 µM and the Kd [35, 50] was ≥ 20 µM. The Kd [7, 50] was ≥ 20 µM, the Kd [8, 50] was ≥ 20 µM and the Kd [37, 50] was ≥ 20 µM. For the same sequence, the Kd [9, 50] was ≥ 20 µM, the Kd [10, 50] was ≥ 20 µM and the Kd [11, 50] was ≥ 20 µM.

In the case of SLDDYNHLV, the Kd ([45]; source organism: Homo sapiens) is reported as 0.278 µM and the Kd ([3]; source organism: Homo sapiens) is reported as ≥ 20 µM.

YSQGAFTPL was tested, and the Kd [45, 51] was 3.08 µM and the Kd [3, 51] was ≤ 0.001 µM.

With YTILNRKAI the IC50 [5, 47] was 9.02 µM, the IC50 [12, 47] was 20.1 µM and the IC50 [6, 47] was ≥ 226 µM.

In the case of YVVWLMFSL, the Kd [3, 52] is reported as 2.19 µM, the Kd [30, 52] is reported as ≥ 20 µM and the Kd [40, 52] is reported as 0.312 µM. The Kd [11, 52] was ≥ 20 µM.
